The text below walks through data of US20090035321A1, “Intercellular adhesion molecules and their binding ligands” (Boehringer Ingelheim Pharmaceuticals, Inc., published 2009).

Experiment [1] concerns the target ICAM-1 V4/G (human, UniProt P05362). The experiment can be described thus: flow, COS cells.
The target in experiment [2] is ICAM-1 E59/Q (human, UniProt P05362). Description: flow, COS cells.
The target in experiment [3] is ICAM-1 N269QSQI/IQAEQ (human) (UniProt P05362). The experiment can be described thus: flow, COS cells.
Experiment [4] addresses ICAM-1 G15/SA (human, UniProt P05362). The experiment can be described thus: flow, COS cells.
In experiment [5] the target is ICAM-1 N240DS/KNA (human, UniProt P05362). The experiment can be described thus: flow, COS cells.
Experiment [6] deals with ICAM-1 Q73/H (human, UniProt P05362). Description: flow, COS cells.
Experiment [7] concerns the target T1, ICAM-1 D71/N (human, UniProt P05362). Description: flow, COS cells.
For experiment [8], the target named is ICAM-1 Q1/K (human, UniProt P05362). Description: flow, COS cells.
Experiment [9] has as its target ICAM-1 D26QPK/ALPE (human, UniProt P05362). The experiment can be described thus: flow, COS cells.
The target in experiment [10] is ICAM-1 A115N/SV (printed A155N/SV at paragraph 410) (human) (UniProt P05362). Description: flow, COS cells.
For experiment [11], the target named is ICAM-1 D60/N (human, UniProt P05362). Description: flow, COS cells.
Experiment [12] deals with T2, ICAM-1 E90/K (human, UniProt P05362). The experiment can be described thus: flow, COS cells.
In experiment [13] the target is ICAM-1 E87/K (human, UniProt P05362). The experiment can be described thus: flow, COS cells.
Experiment [14] addresses ICAM-1 N56V/HM (human, UniProt P05362). The experiment can be described thus: flow, COS cells.
The target of experiment [15] is ICAM-1 E59/K (human, UniProt P05362). Description: flow, COS cells.
Experiment [16] deals with ICAM-1 N118/Q (human, UniProt P05362). Description: flow, COS cells.
Experiment [17] has as its target T3, ICAM-1 Q27/L (human, UniProt P05362). The experiment can be described thus: flow, COS cells.
Experiment [18] addresses ICAM-1 R13/Q (human, UniProt P05362). The experiment can be described thus: flow, COS cells.
Experiment [19] concerns the target ICAM-1 L91/A (human, UniProt P05362). Description: flow, COS cells.
Experiment [20] concerns the target ICAM-1 H152HGA/EEGS (human, UniProt P05362). Description: flow, COS cells.
In experiment [21] the target is ICAM-1 Y66/T (human, UniProt P05362). The experiment can be described thus: flow, COS cells.
For experiment [22], the target named is ICAM-1 G46NN/ASI (human, UniProt P05362). Description: flow, COS cells.
Experiment [23] addresses ICAM-1 R13G/EA (human, UniProt P05362). The experiment can be described thus: flow, COS cells.
The target of experiment [24] is ICAM-1 D60/K (human, UniProt P05362). Description: flow, COS cells.
In experiment [25] the target is ICAM-1 R125/E (human, UniProt P05362). Description: flow, COS cells.
Experiment [26] concerns the target ICAM-1 D60S/KL (human, UniProt P05362). The experiment can be described thus: flow, COS cells.
The target of experiment [27] is ICAM-1 R88V/EA (human, UniProt P05362). The experiment can be described thus: 35S-HRV14 on COS cells. Here is the method:
(§1) COS cells were seeded into 10 cm tissue culture plates such that they would be 50% confluent by 16-24 hrs. COS cells were then washed once with TBS and incubated for 4 hrs with 4 ml RPMI containing 10% Nu sera (Collaborative) 5 pg/ml chloroquine, 3 μg of mutant plasmid and 200 μg/ml DEAE-dextran sulfate. Cells were then washed with 10% DMSO/PBS followed by PBS and cultured 16 hrs in culture media. Culture media was replaced with fresh media and at 48 hrs post transfection (OS cells were suspended by trypsin/EDTA (Gibco) treatment and divided into 2, 10 cm plates as well as 24 well tissue culture plates for HRV binding. At 72 hrs cells were harvested from 10 cm plates with 5 mM EDTA/HBSS and processed for adhesion to LFA-1 coated plastic and immunofluorescence.
(§2) Binding occurred in 1 hr at 35° C. in a 5% CO₂ atmosphere with horizontal rotation (100 rpm). Unbound [³⁵S] HRV14 was aspirated, COS cells were gently washed with 150 ml of HRV buffer and then solubilized with 1% SDS in PBS for scintillation counting.
(§3) In Table 25, the notation for the mutations uses the one-letter code for the wild-type sequence followed by a slash and the one-letter code for the corresponding mutant sequence. The position of the first amino acid within the sequence is indicated. Wild type residues precede the slash followed by the residues they were substituted for in the mutant. COS cells expressing ICAM-1 mutants were tested for adherence to LFA-1 coated plastic and for binding 35S met-labeled HRV14. […] Binding is presented as mean and standard error (SE) for multiple experiments (n). […] The specific linear fluorescence intensity (SLFI) of CL203 for each mutant is normalized to that of wild type CL203 SLFI (% WT) as discussed above. The SLFI of RR1/1, R6.5 and LB-2 SLFI is normalized to the CL203 SLFI of the mutant (% CL203) as described above.

In experiment [28] the target is ICAM-1 S74/A (human, UniProt P05362). The experiment can be described thus: 35S-HRV14 on COS cells. The protocol:
as §1, §2, §3

Experiment [29] addresses ICAM-1 D71/E (human, UniProt P05362). The experiment can be described thus: 35S-HRV14 on COS cells. The protocol:
as §1, §2, §3

Experiment [30] concerns the target T1, ICAM-1 D71/N. Description: 35S-HRV14 on COS cells. Here is the method:
as §1, §2, §3

Experiment [31] deals with T2, ICAM-1 E90/K. Description: 35S-HRV14 on COS cells. Here is the method: as §1, §2, §3
Experiment [32] deals with T3, ICAM-1 Q27/L. The experiment can be described thus: 35S-HRV14 on COS cells. Here is the method: as §1, §2, §3
For experiment [33], the target named is ICAM-1 D229QR/HLE (human, UniProt P05362). The experiment can be described thus: 35S-HRV14 on COS cells. Here is the method:
as §1, §2, §3

Experiment [34] deals with ICAM-1 N175/A (human, UniProt P05362). The experiment can be described thus: 35S-HRV14 on COS cells. The protocol: as §1, §2, §3
Experiment [35] has as its target ICAM-1 Y52/FA (human, UniProt P05362). Description: 35S-HRV14 on COS cells. Here is the method: as §1, §2, §3

For monoclonal antibody CL203, the SLFI % WT in [1] was 111 % WT; in experiment [2] it was 195 % WT; in [3] it was 95 % WT; in experiment [4], 172 % WT; in [5] it was 142 % WT; in experiment [6] it was 139 % WT. For the same molecule, the SLFI % WT in experiment [7] stood at 109 % WT; in experiment [8] it was 168 % WT; in experiment [9], 126 % WT; in [10], 60 % WT; in experiment [11], 127 % WT; in experiment [12], 29 % WT. Moreover, the SLFI % WT was 94 % WT in [13]; 121 % WT in experiment [14]; 130 % WT in [15]; 139 % WT in experiment [16]; 33 % WT in experiment [17]; 161 % WT in [18]. The SLFI % WT in experiment [19] was 15 % WT; in experiment [20], 94 % WT; in [21] it was 144 % WT; in [22], 151 % WT; in [23], 132 % WT; in experiment [24], 89 % WT. Besides, the SLFI % WT in [25] was 145 % WT; in [26], 105 % WT.

B1: human rhinovirus 14 (HRV14) (other)
chain: GAQVSTQKSGSHENQNILTNGSNQTFTVINYYKDAASTSSAGQSLSMDPSKFTEPVKDLMLKGAPALNSPNVEACGYSDRVQQITLGNSTITTQEAANAVVCYAEWPEYLPDVDASDVNKTSKPDTSVCRFYTLDSKTWTTGSKGWCWKLPDALKDMGVFGQNMFFHSLGRSGYTVHVQCNATKFHSGCLLVVVIPEHQLASHEGGNVSVKYTFTHPGERGIDLSSANEVGGPVKDVIYNMNGTLLGNLLIFPHQFINLRTNNTATIVIPYINSVPIDSMTRHNNVSLMVIPIAPLTVPTGATPSLPITVTIAPMCTEFSGIRSKSIVPQGLPTTTLPGSGQFLTTDDRQSPSALPNYEPTPRIHIPGKVHNLLEIIQVDTLIPMNNTHTKDEVNSYLIPLNANRQNEQVFGTNLFIGDGVFKTTLLGEIVQYYTHWSGSLRFSLMYTGPALSSAKLILAYTPPGARGPQDRREAMLGTHVVWDIGLQSTIVMTIPWTSGVQFRYTDPDTYTSAGFLSCWYQTSLILPPETTGQVYLLSFISACPDFKLRLMKDTQTISQTVALTEGLGDELEEVIVEKTKQTVASISSGPKHTQKVPILTANETGATMPVLPSDSIETRTTYMHFNGSETDVECFLGRAACVHVTEIQNKDATGIDNHREAKLFNDWKINLSSLVQLRKKLELFTYVRFDSEYTILATASQPDSANYSSNLVVQAMYVPPGAPNPKEWDDYTWQSASNPSVFFKVGDTSRFSVPYVGLASAYNCFYDGYSHDDAETQYGITVLNHMGSMAFRIVNEHDEHKTLVKIRVYHRAKHVEAWIPRAPRALPYTSIGRTNYPKNTEPVIKKRKGDIKSY
modifications: [35S]-Met labeled
Turning to B1, the “HRV Binding %” value in experiment [27] is 152 % of wild type; in experiment [28], 156 % of wild type; in [29], 140 % of wild type; in experiment [30] it was 62 % of wild type; in experiment [31] it was 50 % of wild type; in [32] it was 57 % of wild type. For the same molecule, the “HRV Binding %” value was 106 % of wild type in [33], 129 % of wild type in [34] and 125 % of wild type in experiment [35].
